A short description of data set [1]: folding stability dG unfold from chymotrypsin proteolysis; higher = more stable. Summed up:
(§1)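 K50 was inferred by Bayesian fitting of sequencing counts obtained after protease digestion of designed mini-proteins. Unfolding free energy was derived by comparison with a sequence-predicted unfolded-state K50 and a shared folded-state K50, for each protease or both combined. The mini-proteins were under 80 residues, had no cysteine, were carried in a PA-tagged cDNA display construct, and were kept only if AlphaFold2 dimer inter-PAE exceeded 15.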

Data set [2] in a line: folding stability dG unfold from trypsin proteolysis; higher = more stable. Put shortly: as §1
Data set [3] in a line: folding stability dG unfold (combined trypsin and chymotrypsin); higher = more stable. Put shortly: as §1

± gives the half width of the 95% confidence interval.

Turning to “SAGGSAGGSAGGSMIVEEDPVGPEKVTTVTLPEKDKLVTVTETFLPDGSVVTTTTPVPSSAGGSAGGSAGGS [r4_332_JUSTAS]”, the “folding stability dG unfold” value in data set [1] is 2 ± 0.25 kcal/mol; in data set [2] it was 1.8 ± 0.17 kcal/mol; in data set [3], 1.96 ± 0.13 kcal/mol.
Regarding “SAGGSAGGSAGGSMIVLRMSADEIKKLLPPGAKIKKIEYDEETDEVYVIIEFDKDGKIISAGGSAGGSAGGS [r4_435_TrROS_Hall]”, the “folding stability dG unfold” value was 1.32 ± 0.092 kcal/mol in data set [1], 1.53 ± 0.028 kcal/mol in data set [2] and 1.49 ± 0.069 kcal/mol in data set [3].
On the same counts, the results for “SAGGSAGGSAGGSMKIELPEGAEITEIKKLPNGTYEMTIRVDGKELKIRFVDGKLVIVPSAGGSAGGSAGGS [r4_280_TrROS_Hall]” are 3.51 ± 0.057 kcal/mol, 3.62 ± 0.14 kcal/mol and 3.56 ± 0.077 kcal/mol.
Taken in the same sequence, the figures for “SAGGSAGGSAGGSMKITKTLIPETGLYKVTITLPGGKPVEIEAPPSSSLEEVKKKAEKLSAGGSAGGSAGGS [r4_205_JUSTAS]” were -0.169 ± 0.26 kcal/mol, -0.116 ± 0.12 kcal/mol and -0.145 ± 0.26 kcal/mol.
With “SAGGSAGGSAGGSMKIYKITVKKEDSELEFYVSDDVPAEVAANILKALYPDVEVKIEEGSAGGSAGGSAGGS [r4_155_TrMRF]”, the “folding stability dG unfold” value in data set [1] turned out to be 1.1 ± 0.1 kcal/mol; in data set [2], 1.25 ± 0.048 kcal/mol; in data set [3] it was 1.11 ± 0.15 kcal/mol.
On to “SAGGSAGGSAGGSMKLNITVTLPDGTPITLTFPVDKIEEILKEAGLENISPELITKIEPISAGGSAGGSAGG [r7_745_JUSTAS]”, for which the figures for the “folding stability dG unfold” value in data set [1], in data set [2] and in data set [3] were 1.39 ± 0.026 kcal/mol, 1.33 ± 0.034 kcal/mol and 1.37 ± 0.051 kcal/mol, respectively.
Turning to “SAGGSAGGSAGGSMKYITITETTEEEVLVLYYDPETGEPVREEKVLRTVTKTRTLPPDLKSAGGSAGGSAGG [r7_573_JUSTAS]”, the “folding stability dG unfold” value was 0.434 ± 0.19 kcal/mol in data set [1], -0.236 ± 0.23 kcal/mol in data set [2] and 0.189 ± 0.14 kcal/mol in data set [3].
Consider “SAGGSAGGSAGGSMLVEKKTFKDPKTGKTYIEIVIKDENGNLLSVKILSTEDPEKIEKLLSAGGSAGGSAGG [r7_484_JUSTAS]”, for which the results for the “folding stability dG unfold” value in data set [1], in data set [2] and in data set [3] were 2.55 ± 0.037 kcal/mol, 2.15 ± 0.12 kcal/mol and 2.37 ± 0.15 kcal/mol, respectively.
On the same counts, the results for “SAGGSAGGSAGGSMLVRFPDKDVLSDGSEAEAERLAEELAAAGRPVELEFISPEEAAARSAGGSAGGSAGGS [r4_131_JUSTAS]” are -0.83 ± 0.32 kcal/mol, -0.225 ± 0.21 kcal/mol and -0.424 ± 0.31 kcal/mol.
Consider “SAGGSAGGSAGGSMPIVRIEVKHPDQKHTFFIPPDMPLEDIADELASQYPNVEVKIEPVSAGGSAGGSAGGS [r4_155_TrROS]”, for which the “folding stability dG unfold” value came to 1.33 ± 0.11 kcal/mol in data set [1], 0.355 ± 0.091 kcal/mol in data set [2] and 0.935 ± 0.21 kcal/mol in data set [3].
As to “SAGGSAGGSAGGSMPTYRITVEVDGKKYTITVREGMSPEEIAKRLKELYPNLTVKIEPVSAGGSAGGSAGGS [r4_155_TrROS_Hall]”, the figures for the “folding stability dG unfold” value in data set [1], in data set [2] and in data set [3] were 4.07 ± 0.15 kcal/mol, 3.75 ± 0.13 kcal/mol and 4.04 ± 0.13 kcal/mol, respectively.
For the sequence “SAGGSAGGSAGGSMSSTVTTTLVEVGPPNGKRVLVRRTTTTFPDGSVTTTVTVLSTTIASAGGSAGGSAGGS [r4_496_JUSTAS]”, the “folding stability dG unfold” value came out at 2.61 ± 0.033 kcal/mol in data set [1], 1.84 ± 0.027 kcal/mol in data set [2] and 2.37 ± 0.063 kcal/mol in data set [3].
Consider “SAGGSAGGSAGGSMSTVFVSTLTLPDPSGLSTVLTTTVEIDPEGNAHPVTSTEEVSAAASAGGSAGGSAGGS [r4_80_JUSTAS]”, for which the “folding stability dG unfold” value came out at 0.33 ± 0.089 kcal/mol in data set [1], 0.716 ± 0.022 kcal/mol in data set [2] and 0.652 ± 0.079 kcal/mol in data set [3].
In the case of “SAGGSAGGSAGGSMTLKVTLTPPSGEVVEFEITEEELDKLKEELPEDWSISTEPIPELESAGGSAGGSAGGS [r4_63_JUSTAS]”, the “folding stability dG unfold” value in data set [1] was found to be 2.132 ± 0.016 kcal/mol; in data set [2], 2.43 ± 0.07 kcal/mol; in data set [3], 2.29 ± 0.051 kcal/mol.
As for “SAGGSAGGSAGGSMVTLTVEKTFTSLLKTPESELIPVTSTVTEEVTIPESEATEELIKELSAGGSAGGSAGG [r7_777_JUSTAS]”, the “folding stability dG unfold” value is -0.0189 ± 0.23 kcal/mol in data set [1], 0.388 ± 0.054 kcal/mol in data set [2] and 0.399 ± 0.2 kcal/mol in data set [3].
Taken in the same sequence, the figures for “SAGGSAGGSAGGSMVVEYDPETGVRTTTVALPSDSVEVTTEKIDPATGEVVETVTELAASAGGSAGGSAGGS [r4_415_JUSTAS]” were 0.634 ± 0.048 kcal/mol, -0.105 ± 0.027 kcal/mol and 0.358 ± 0.086 kcal/mol.
Take “SAGGSAGGSAGGSMYIKIPGEPGDLREVVIEGKKVKVTPDANNPDKVTYTLPDGTKIALSAGGSAGGSAGGS [r4_488_JUSTAS]”: the “folding stability dG unfold” value in data set [1] is 0.957 ± 0.14 kcal/mol; in data set [2] it was 0.117 ± 0.064 kcal/mol; in data set [3], 0.638 ± 0.073 kcal/mol.
Turning to “SAGGSAGGSAGGSMYTLLSTENRPDPNSSKPVTTKTYKLPDGSTVVVTEYPDSVEEKPLVSAGGSAGGSAGG [r7_479_JUSTAS]”, the “folding stability dG unfold” value in data set [1] is -0.122 ± 0.63 kcal/mol; in data set [2], -0.00111 ± 0.087 kcal/mol; in data set [3], 0.182 ± 0.25 kcal/mol.
For “SAGGSAGGSAGGSNPVDIVEILSYDPEKNTYTFLVKLPDGSTKTITVPGLSVEEIKKELSAGGSAGGSAGGS [r4_357_JUSTAS]”, the “folding stability dG unfold” value in data set [1] came to 3.276 ± 0.029 kcal/mol; in data set [2] it was 1.57 ± 0.083 kcal/mol; in data set [3] it was 2.86 ± 0.085 kcal/mol.
With “SAGGSAGGSAGGSPLPGQPPEVILIKLDKPVKVGQTITLPDGYKLEVNEETGYLLIVKTSAGGSAGGSAGGS [r4_78_TrROS_Hall]”, the “folding stability dG unfold” value was determined as 0.992 ± 0.081 kcal/mol in data set [1], 0.705 ± 0.05 kcal/mol in data set [2] and 0.843 ± 0.051 kcal/mol in data set [3].
As to “SAGGSAGGSAGGSPLVIKVDGPAEKLIEEIKKLFPNAKVLSIETHPDGGVTLVVEKIDESAGGSAGGSAGGS [r4_95_TrMRF]”, the “folding stability dG unfold” value in data set [1] turned out to be 2.35 ± 0.069 kcal/mol; in data set [2], 1.38 ± 0.07 kcal/mol; in data set [3] it was 2.03 ± 0.15 kcal/mol.
Taken in the same sequence, the figures for “SAGGSAGGSAGGSPNPLLPPVRPKVILKDPKTGTTKTFTTEEEAKKAVESGEYTVLKIESAGGSAGGSAGGS [r10_520_JUSTAS]” were 0.353 ± 0.11 kcal/mol, -0.0844 ± 0.066 kcal/mol and 0.217 ± 0.058 kcal/mol.
In the case of “SAGGSAGGSAGGSPPNMEPVETQEYQIGNDFIIKVDTYRMPDPDMYFVDIEITPDALKASAGGSAGGSAGGS [r4_163_TrROS]”, the results for the “folding stability dG unfold” value in data set [1], in data set [2] and in data set [3] were 1.82 ± 0.17 kcal/mol, 0.82 ± 0.12 kcal/mol and 1.28 ± 0.3 kcal/mol, respectively.
Take “SAGGSAGGSAGGSSDIVVTSETLPGPTRLVRITIPEKGETIELTLPASESIEQAVALLLSAGGSAGGSAGGS [r4_393_JUSTAS]”: the “folding stability dG unfold” value in data set [1] amounted to 0.0828 ± 0.4 kcal/mol; in data set [2], 0.253 ± 0.1 kcal/mol; in data set [3], 0.381 ± 0.16 kcal/mol.
On to “SAGGSAGGSAGGSSIRIWIFFPGYFFRITIKPDPGNPNMIKIDITEIIPPDQMDDEDLISAGGSAGGSAGGS [r4_316_TrROS]”, for which the figures for the “folding stability dG unfold” value in data set [1], in data set [2] and in data set [3] were 4.38 ± 0.14 kcal/mol, 3.53 ± 0.26 kcal/mol and 4.38 ± 0.3 kcal/mol, respectively.
Taken in the same sequence, the figures for “SAGGSAGGSAGGSSMSISVLEVRELPNGTLEITTVDYNPDNGYTTTTTYTLPPGQPLLISAGGSAGGSAGGS [r4_133_JUSTAS]” were 1.62 ± 0.045 kcal/mol, 1.8 ± 0.053 kcal/mol and 1.74 ± 0.068 kcal/mol.
On the same counts, the results for “SAGGSAGGSAGGSSSIYYDPRYPNVAVNPETGEAVTGIPLEELEKLGATPVGPDWVRIDSAGGSAGGSAGGS [r4_306_TrMRF]” are 0.196 ± 0.061 kcal/mol, -0.659 ± 0.15 kcal/mol and -0.0656 ± 0.13 kcal/mol.
Take “SAGGSAGGSAGGSSSSASVEVKTETSVSYDPSTGRTYTTTTSKYPLTNTTVTTTTTDPTSAGGSAGGSAGGS [r10_187_JUSTAS]”: the “folding stability dG unfold” value in data set [1] was found to be 0.139 ± 0.15 kcal/mol; in data set [2], 0.955 ± 0.03 kcal/mol; in data set [3], 0.621 ± 0.17 kcal/mol.
Regarding “SAGGSAGGSAGGSSTAVIRRPETGEEHTFDLPEDATEEDIRARLEAAGFPPGSEIVEIVESAGGSAGGSAGG [r7_70_JUSTAS]”, the “folding stability dG unfold” value in data set [1] was determined as 1.91 ± 0.048 kcal/mol; in data set [2], 1.21 ± 0.067 kcal/mol; in data set [3], 1.66 ± 0.035 kcal/mol.
For “SAGGSAGGSAGGSSVKLTLPDGSQVTVDIHPDGTATVTTFPGDTPSVTNMPVSAFQAALPSAGGSAGGSAGG [r7_178_JUSTAS]”, the entries for the “folding stability dG unfold” value in data set [1], in data set [2] and in data set [3] were 1.79 ± 0.21 kcal/mol, 1.72 ± 0.44 kcal/mol and 2.08 ± 0.53 kcal/mol, respectively.
As to “SAGGSAGGSAGGSTILILDPETKKLYLIRIEKREDGKEELKLKVYEFDLKTGEMKEYELSAGGSAGGSAGGS [r10_1041_TrROS_Hall]”, the “folding stability dG unfold” value amounted to 4.68 ± 0.19 kcal/mol in data set [1], 3.25 ± 0.2 kcal/mol in data set [2] and 4.15 ± 0.19 kcal/mol in data set [3].
With “SAGGSAGGSAGGSTITLRIEGLSKEEIEELARKLGAKVVSFDEKNKTVTIELPPGAKLLSAGGSAGGSAGGS [r4_3_TrROS_Hall]”, the “folding stability dG unfold” value in data set [1] amounted to 2.19 ± 0.044 kcal/mol; in data set [2], 1.88 ± 0.054 kcal/mol; in data set [3], 2.09 ± 0.084 kcal/mol.
Take “SAGGSAGGSAGGSTPSFTPVLELEFEFENDVVVRVRLYRLPDEDTYLLEVEVAPDSLKDSAGGSAGGSAGGS [r4_163_TrMRF]”: the “folding stability dG unfold” value in data set [1] was determined as 4.11 ± 0.1 kcal/mol; in data set [2] it was 2.88 ± 0.093 kcal/mol; in data set [3] it was 3.62 ± 0.13 kcal/mol.
Regarding “SAGGSAGGSAGGSVIEVKDPNGKKYIIIKTPDPNVYPVTVIPPDGTTTVTPVSDYSKLLSSAGGSAGGSAGG [r7_769_JUSTAS]”, the “folding stability dG unfold” value was -0.464 ± 0.56 kcal/mol in data set [1], -0.893 ± 0.4 kcal/mol in data set [2] and -0.527 ± 0.42 kcal/mol in data set [3].
In the case of “SAGGSAGGSAGGSVSELPPISTKTTTTVTTTSDGTKVVYTTTTYSDGTTTTTSGPVPAASAGGSAGGSAGGS [r10_682_JUSTAS]”, the “folding stability dG unfold” value worked out at 1.14 ± 0.067 kcal/mol in data set [1], 0.565 ± 0.049 kcal/mol in data set [2] and 1.09 ± 0.13 kcal/mol in data set [3].
Take “SAGGSAGGSAGGSVSSVSTTSSPVVDPETGPASTVTTHSVPGGPATTVVMTPDSTTTTGSAGGSAGGSAGGS [r10_384_JUSTAS]”: the “folding stability dG unfold” value is 1.43 ± 0.038 kcal/mol in data set [1], 1.92 ± 0.081 kcal/mol in data set [2] and 1.59 ± 0.074 kcal/mol in data set [3].

Values taken from the supplement of paper PMC12764529.
